# Measurements from US6608174B1, “Radiolabeled vasoactive intestinal peptide analogs for diagnosis and radiotherapy” (Dabur Research Foundation, priority 2000, dated 2003).
# Square brackets hold non-standard residues; d marks the D form. Ends that are not written are not given here. dPhe(4-Cl) = N[C@H](Cc1ccc(Cl)cc1)C(=O)O; Aib = CC(C)(N)C(=O)O
# Assays:
# VIP receptors = assay: Displacement assay using 125I labeled VIP on human tumor cell lines; assay type: binding; details: for IC50: inhibition of 125I labeled VIP binding
# Description: Peptides of the invention were assayed for biological activity in homogeneous competition binding assays using ^125I labeled VIP peptide (SEQ ID NO:1) and in heterogeneous displacement assays using either ^125I labeled VIP (10-28) fragment (Tyr-Thr-Arg-Leu-Arg-Lys-Gln-Met-Ala-Val-Lys-Lys-Tyr-Leu-Asn-Ser-Ile-Leu-Asn-NH2) (SEQ ID NO: 12) or ^125I labeled VIP (SEQ ID NO:1). The assays were performed on a variety of human tumor cell lines.
# In the practice of these methods, the peptide was radioiodinated using the iodogen method. Briefly, 5 μg of the peptide in 10 μl of 50 mM PBS (pH 7.5), an appropriate amount of the radioisotope and 50 μg-100 μg iodogen were incubated at room temperature for 15-30 min with occasional mixing. Radioiodinated peptide was purified from unincorporated radioactive iodine by purification on a Sep Pak C18 cartridge, essentially following the same procedure as described for technetium labeling.
# Displacement assays were performed at 4-8° C. Briefly, 50,000 cells were plated per well of a 24 well plate and allowed to adhere overnight. Before the assay, the cells were washed twice with ice cold Binding buffer (25 mM HEPES, 10 mM […] MgCl2 and 1% BSA in RPMI 1640 medium). The cells were incubated for 2-3hrs with an appropriate concentration (0.1-10 nM) of ^125I labeled VIP (SEQ ID NO:1) in the presence and absence of the cold ligand (SEQ ID NO: 2) (1 nM-10 μM). The non specific binding was ascertained using 10 μM of VIP. After incubation, the cells were washed thrice with the Binding buffer to remove the unbound peptide. The cells were lysed and counts were measured in a Gamma counter. From a comparison of the extent of binding in the presence or absence of the unlabeled peptide, a concentration was determined corresponding to inhibition of ^125I labeled VIP binding by 50%. Different tumor cell lines were assayed using the above described displacement assay: HT29 (human colorectal adenocarcinoma); PTC (human primary tumor cells adenocarcinoma); KB (human squamous cell carcinoma); 4451 (human squamous cell carcinoma); L132 (human lung carcinoma); A549 (human lung carcinoma); HBL100 (human breast carcinoma) and PA1 (human ovarian carcinoma). Cells were grown in RPMI 1640 supplemented with 10% fetal calf serum, glutamine and antibiotics using standard cell culture techniques (see Animal Cell Culture: A Practical Approach, Freshney, ed, IRL press: Oxford, UK, 1992).
# [1] = target: high affinity (nM range), low surface expression receptor on human tumor cells (VIP receptor) (human); assay: maximal binding, 125I-SEQ ID NO:2 on L132 cells
# [2] = target: low affinity (µM range), high surface expression receptor on human tumor cells (VIP receptor) (human); assay: maximal binding, 125I-SEQ ID NO:2 on L132 cells
# [3] = target: VIP receptors on human tumor cell lines (human); assay: displacement of 125I labeled VIP (10-28) fragment on A549 cells
# [4] = target: high affinity (nM range), low surface expression receptor on human tumor cells (VIP receptor) (human); assay: homologous radioligand competition, 125I-SEQ ID NO:2 on PTC cells
# [5] = target: low affinity (µM range), high surface expression receptor on human tumor cells (VIP receptor) (human); assay: as above
# [6] = target: high affinity (nM range), low surface expression receptor on human tumor cells (VIP receptor) (human); assay: maximal binding, 125I-SEQ ID NO:2 on HBL 100 cells
# [7] = target: low affinity (µM range), high surface expression receptor on human tumor cells (VIP receptor) (human); assay: maximal binding, 125I-SEQ ID NO:2 on HBL 100 cells
# [8] = target: VIP receptors on human tumor cell lines (human); assay: displacement of 125I labeled VIP on L132 cells
# [9] = target: high affinity (nM range), low surface expression receptor on human tumor cells (VIP receptor) (human); assay: homologous radioligand competition, 125I-SEQ ID NO:2 on L132 cells
# [10] = target: low affinity (µM range), high surface expression receptor on human tumor cells (VIP receptor) (human); assay: as above
# [11] = target: VIP receptors on human tumor cell lines (human); assay: displacement of 125I labeled VIP (10-28) fragment on PA1 cells
# [12] = target: VIP receptors on human tumor cell lines (human); assay: displacement of 125I labeled VIP on A549 cells
# [13] = target: high affinity (nM range), low surface expression receptor on human tumor cells (VIP receptor) (human); assay: homologous radioligand competition, 125I-SEQ ID NO:2 on HBL 100 cells
# [14] = target: low affinity (µM range), high surface expression receptor on human tumor cells (VIP receptor) (human); assay: as above
# [15] = target: high affinity (nM range), low surface expression receptor on human tumor cells (VIP receptor) (human); assay: homologous radioligand competition, 125I-SEQ ID NO:2 on PA1 cells
# [16] = target: low affinity (µM range), high surface expression receptor on human tumor cells (VIP receptor) (human); assay: as above
# [17] = target: high affinity (nM range), low surface expression receptor on human tumor cells (VIP receptor) (human); assay: maximal binding, 125I-SEQ ID NO:2 on A549 cells
# [18] = target: low affinity (µM range), high surface expression receptor on human tumor cells (VIP receptor) (human); assay: maximal binding, 125I-SEQ ID NO:2 on A549 cells
# [19] = target: VIP receptors on human tumor cell lines (human); assay: displacement of 125I labeled VIP on 4451 cells
# [20] = target: high affinity (nM range), low surface expression receptor on human tumor cells (VIP receptor) (human); assay: maximal binding, 125I-SEQ ID NO:2 on KB cells
# [21] = target: low affinity (µM range), high surface expression receptor on human tumor cells (VIP receptor) (human); assay: maximal binding, 125I-SEQ ID NO:2 on KB cells
# [22] = target: VIP receptors on human tumor cell lines (human); assay: displacement of 125I labeled VIP (10-28) fragment on HBL 100 cells
molecule,measurement,setting,value
"His-Ser-Asp-Aib-Val-4-Cl-D-Phe-Thr-Asp-Asn-Tyr-Thr-Arg-Leu-Arg-Lys-Gln-Leu-Ala-Val-Lys-Lys-Tyr-Leu-Asn-Ser-Ile-Leu-Asn-NH2 (HSD[Aib]V[dPhe(4-Cl)]TDNYTRLRKQLAVKKYLNSILN-NH2; N-terminus assumed; SMILES CC[C@H](C)[C@H](NC(=O)[C@H](CO)NC(=O)[C@H](CC(N)=O)NC(=O)[C@H](CC(C)C)NC(=O)[C@H](Cc1ccc(O)cc1)NC(=O)[C@H](CCCCN)NC(=O)[C@H](CCCCN)NC(=O)[C@@H](NC(=O)[C@H](C)NC(=O)[C@H](CC(C)C)NC(=O)[C@H](CCC(N)=O)NC(=O)[C@H](CCCCN)NC(=O)[C@H](CCCNC(=N)N)NC(=O)[C@H](CC(C)C)NC(=O)[C@H](CCCNC(=N)N)NC(=O)[C@@H](NC(=O)[C@H](Cc1ccc(O)cc1)NC(=O)[C@H](CC(N)=O)NC(=O)[C@H](CC(=O)O)NC(=O)[C@@H](NC(=O)[C@@H](Cc1ccc(Cl)cc1)NC(=O)[C@@H](NC(=O)C(C)(C)NC(=O)[C@H](CC(=O)O)NC(=O)[C@H](CO)NC(=O)[C@@H](N)Cc1c[nH]cn1)C(C)C)[C@@H](C)O)[C@@H](C)O)C(C)C)C(=O)N[C@@H](CC(C)C)C(=O)N[C@@H](CC(N)=O)C(N)=O) [SEQ ID NO:2, VIP receptor antagonist, preferred peptide (Xxx = Aib)]",IC50,VIP receptors; 4451 cells,7.1 nM
same,IC50,VIP receptors; A549 cells,4.3 nM
same,IC50,VIP receptors; HBL 100 cells,5.41 nM
same,IC50,VIP receptors; HT29 cells,2.78 nM
same,IC50,VIP receptors; KB cells,6.2 nM
same,IC50,VIP receptors; L132 cells,6.8 nM
same,IC50,VIP receptors; PA1 cells,7.6 nM
same,IC50,VIP receptors; PTC cells,2.53 nM
same,displacement of binding of radiolabelled VIP to the cell lines,VIP receptors; all cell lines of Table IV,significantly displace
HSD[Aib]V[dPhe(4-Cl)]TDNYTRLRKQLAVKKYLNSILN-NH2 (also: 125I-labelled form (iodogen) used as tracer),Bmax1,[1],306 pM
same,Bmax2,[2],45.8 nM
same,IC50,[3],0.275 nM
same,Kd,[4],1.77 nM
same,Kd,[5],1180 nM
same,Bmax1,[6],697 pM
same,Bmax2,[7],69.1 nM
same,IC50,[8],6.8 nM
same,Kd,[9],2.6 nM
same,Kd,[10],1030 nM
same,IC50,[11],0.31 nM
same,IC50,[12],4.3 nM
same,Kd,[13],2.13 nM
same,Kd,[14],1600 nM
same,Kd,[15],5.6 nM
same,Kd,[16],1890 nM
same,Bmax1,[17],540 pM
same,Bmax2,[18],48.3 nM
same,IC50,[19],7.1 nM
same,Bmax1,[20],602 pM
same,Bmax2,[21],42.9 nM
same,IC50,[22],0.236 nM
